# Patent US20100202967A1 (BRACCO IMAGING, published 2010)
# Bridge positions count the residues as written; N and C are the ends. Square brackets hold non-standard residues; d marks the D form. Ends that are not written are not given here. Phe(3,4-F2) = N[C@@H](Cc1ccc(F)c(F)c1)C(=O)O; Thf2ca = tetrahydrofuran-2-carboxylic acid; Phe(4-F) = N[C@@H](Cc1ccc(F)cc1)C(=O)O; Hyp = O=C(O)[C@@H]1C[C@@H](O)CN1; Cha = N[C@@H](CC1CCCCC1)C(=O)O; CF5 = 5-carboxyfluorescein
# T1: fibrin
# T1 chain 1: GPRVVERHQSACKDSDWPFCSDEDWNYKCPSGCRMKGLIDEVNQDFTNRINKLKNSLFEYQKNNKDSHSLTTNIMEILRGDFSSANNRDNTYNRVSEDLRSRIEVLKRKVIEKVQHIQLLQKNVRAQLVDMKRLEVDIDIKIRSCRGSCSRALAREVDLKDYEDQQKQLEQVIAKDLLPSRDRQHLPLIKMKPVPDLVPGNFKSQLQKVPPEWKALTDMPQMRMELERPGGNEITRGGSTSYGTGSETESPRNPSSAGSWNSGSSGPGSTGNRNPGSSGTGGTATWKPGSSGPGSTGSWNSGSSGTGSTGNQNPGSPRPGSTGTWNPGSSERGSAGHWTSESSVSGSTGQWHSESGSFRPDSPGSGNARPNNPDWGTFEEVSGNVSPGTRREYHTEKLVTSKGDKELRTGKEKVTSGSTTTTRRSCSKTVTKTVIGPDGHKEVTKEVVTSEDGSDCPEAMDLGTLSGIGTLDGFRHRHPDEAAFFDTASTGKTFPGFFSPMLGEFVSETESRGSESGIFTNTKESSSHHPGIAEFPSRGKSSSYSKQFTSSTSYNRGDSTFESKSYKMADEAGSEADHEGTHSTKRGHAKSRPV
# T1 chain 2: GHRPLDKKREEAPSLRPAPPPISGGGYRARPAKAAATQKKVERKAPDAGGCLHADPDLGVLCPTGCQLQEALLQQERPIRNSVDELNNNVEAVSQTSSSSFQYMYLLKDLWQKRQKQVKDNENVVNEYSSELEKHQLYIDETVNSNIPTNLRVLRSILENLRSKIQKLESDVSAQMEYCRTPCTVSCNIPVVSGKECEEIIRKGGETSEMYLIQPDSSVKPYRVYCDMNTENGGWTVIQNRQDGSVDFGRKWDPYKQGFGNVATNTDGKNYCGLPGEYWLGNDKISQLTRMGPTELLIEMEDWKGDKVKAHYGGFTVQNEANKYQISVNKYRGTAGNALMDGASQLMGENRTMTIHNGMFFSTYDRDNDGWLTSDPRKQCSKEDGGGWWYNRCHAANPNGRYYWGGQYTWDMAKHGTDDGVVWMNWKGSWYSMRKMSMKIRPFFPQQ
# T1 chain 3: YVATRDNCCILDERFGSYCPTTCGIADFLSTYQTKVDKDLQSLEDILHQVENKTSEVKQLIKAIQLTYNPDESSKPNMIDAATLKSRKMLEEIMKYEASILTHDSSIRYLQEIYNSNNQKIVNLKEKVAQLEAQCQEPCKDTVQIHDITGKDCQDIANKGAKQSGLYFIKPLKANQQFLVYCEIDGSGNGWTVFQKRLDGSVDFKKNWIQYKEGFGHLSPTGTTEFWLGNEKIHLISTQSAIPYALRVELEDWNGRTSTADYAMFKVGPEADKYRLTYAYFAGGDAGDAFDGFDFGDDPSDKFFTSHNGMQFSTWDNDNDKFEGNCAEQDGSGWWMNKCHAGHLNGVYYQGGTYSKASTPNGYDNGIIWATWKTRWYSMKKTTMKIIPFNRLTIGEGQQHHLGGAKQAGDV
# B1: Ac-WQPC*PWESWTFC*WDPGGGK-NH2 (peptide)
# peptide: WQPCPWESWTFCWDPGGGK
# modifications: N-terminal acetyl; disulfide Cys4-Cys12 (C*); C-terminal amide
# B2: Ac-WQPC*PWESWT-F34fe-C*WDPGGGK(CF5)-NH2 (peptide)
# peptide: Ac-WQPCPWESWT[Phe(3,4-F2)]CWDPGGGK(CF5)-NH2
# modifications: disulfide 4-12
# B3: Ac-WQPC*PWESWTFC*WDPGGGK(CF5)-NH2 (peptide)
# peptide: Ac-WQPCPWESWTFCWDPGGGK(CF5)-NH2
# modifications: disulfide 4-12
# B4: RWQPC*PWESWTFC*WDPGGGK(CF5)-NH2 (peptide)
# peptide: H-RWQPCPWESWTFCWDPGGGK(CF5)-NH2
# modifications: disulfide 5-13
# B5: RGWQPC*PAESWT-Cha-C*WDPGGGK(CF5)-NH2 (peptide)
# peptide: H-RGWQPCPAESWT[Cha]CWDPGGGK(CF5)-NH2
# modifications: disulfide 6-14
# B6: Ac-RWQPC*PWESWTFC*WDPGGGK(CF5)-NH2 (peptide)
# peptide: Ac-RWQPCPWESWTFCWDPGGGK(CF5)-NH2
# modifications: disulfide 5-13
# B7: RWQPC*PAESWTFC*WDPGGGK(CF5)-NH2 (peptide)
# peptide: H-RWQPCPAESWTFCWDPGGGK(CF5)-NH2
# modifications: disulfide 5-13
# B8: Ac-RWQPC*PAESWTFC*WDPGGGK(CF5)-NH2 (peptide)
# peptide: RWQPCPAESWTFCWDPGGGK(CF5)-NH2
# modifications: disulfide 5-13; not fully specified (N-terminus); printed as RWQPC*PAESWTFC*WDPGGGK(CF5)-NH2
# B9: Thf2ca-WQPC*PWESWTFC*WDPGGGK(CF5)-NH2 (peptide)
# peptide: Thf2ca-WQPCPWESWTFCWDPGGGK(CF5)-NH2
# modifications: disulfide 4-12
# B10: Ac-GWQPC*PAESWTFC*WDPGGGK(CF5)-NH2 (peptide)
# peptide: Ac-GWQPCPAESWTFCWDPGGGK(CF5)-NH2
# modifications: disulfide 5-13
# B11: GWQPC*PAESWTFC*WDPGGGK(CF5)-NH2 (peptide)
# peptide: H-GWQPCPAESWTFCWDPGGGK(CF5)-NH2
# modifications: disulfide 5-13
# B12: Ac-RGWQPC*PAESWT-Cha-C*WDPGGGK(CF5)-NH2 (peptide)
# peptide: Ac-RGWQPCPAESWT[Cha]CWDPGGGK(CF5)-NH2
# modifications: disulfide 6-14
# B13: Ac-WQPC*PWESWT-Cha-C*WDPGGGK(CF5)-NH2 (peptide)
# peptide: Ac-WQPCPWESWT[Cha]CWDPGGGK(CF5)-NH2
# modifications: disulfide 4-12
# B14: Ac-WQPC*PWESWT-Ffe4-C*WDPGGGK(CF5)-NH2 (peptide)
# peptide: Ac-WQPCPWESWT[Phe(4-F)]CWDPGGGK(CF5)-NH2
# modifications: disulfide 4-12
# B15: Ac-WQPC*PWESWT-Ffe4-C*WDPGGGK-NH2 (peptide)
# peptide: Ac-WQPCPWESWT[Phe(4-F)]CWDPGGGK-NH2
# modifications: disulfide 4-12
# B16: Ac-WQPC*PWESWT-F34fe-C*WDPGGGK-NH2 (peptide)
# peptide: Ac-WQPCPWESWT[Phe(3,4-F2)]CWDPGGGK-NH2
# modifications: disulfide 4-12
# B17: Ac-WQPC*PWESWT-Cha-C*WDPGGGK-NH2 (peptide)
# peptide: Ac-WQPCPWESWT[Cha]CWDPGGGK-NH2
# modifications: disulfide 4-12
# B18: Thf2ca-WQPC*PWESWTFC*WDPGGGK-NH2 (peptide)
# peptide: Thf2ca-WQPCPWESWTFCWDPGGGK-NH2
# modifications: disulfide 4-12
# B19: Ac-GWQPC*PWESWTFC*WDPGGGK-NH2 (peptide)
# peptide: Ac-GWQPCPWESWTFCWDPGGGK-NH2
# modifications: disulfide 5-13
# B20: GWQPC*PWESWTFC*WDPGGGK-NH2 (peptide)
# peptide: H-GWQPCPWESWTFCWDPGGGK-NH2
# modifications: disulfide 5-13
# B21: Ac-RRGGWQPC*-Hypt4-WESWTFC*WDPGGGK-NH2 (peptide)
# peptide: Ac-RRGGWQPC[Hyp]WESWTFCWDPGGGK-NH2
# modifications: disulfide 8-16
# SMILES: CC(=O)N[C@@H](CCCNC(=N)N)C(=O)N[C@@H](CCCNC(=N)N)C(=O)NCC(=O)NCC(=O)N[C@@H](Cc1c[nH]c2ccccc12)C(=O)N[C@@H](CCC(N)=O)C(=O)N1CCC[C@H]1C(=O)N[C@H]1CSSC[C@@H](C(=O)N[C@@H](Cc2c[nH]c3ccccc23)C(=O)N[C@@H](CC(=O)O)C(=O)N2CCC[C@H]2C(=O)NCC(=O)NCC(=O)NCC(=O)N[C@@H](CCCCN)C(N)=O)NC(=O)[C@H](Cc2ccccc2)NC(=O)[C@H]([C@@H](C)O)NC(=O)[C@H](Cc2c[nH]c3ccccc23)NC(=O)[C@H](CO)NC(=O)[C@H](CCC(=O)O)NC(=O)[C@H](Cc2c[nH]c3ccccc23)NC(=O)[C@@H]2C[C@@H](O)CN2C1=O
# Biological target: fibrin
# Assay: competition fluorescence polarization assay; reference of Table 6
row,Rel IC50 (ratio (reference peptide itself)),Binder
1,1,B1

# Biological target: fibrin
# Assay: fluorescence polarization, direct binding (n = 2)
row,Kd [nM],Binder
1,700,B2
2,390,B3
3,110,B4
4,50,B5
5,110,B6
6,60,B7
7,210,B8
8,1210,B9
9,240,B10
10,240,B11
11,100,B12
12,200,B13
13,1020,B14

# Biological target: fibrin
# Assay: competition fluorescence polarization assay (n = 2)
row,Rel IC50 (ratio to Ac-Seq000-GGGK-NH2),Binder
1,0.601,B15
2,0.428,B16
3,0.494,B17
4,0.616,B18
5,1.04,B19
6,0.622,B20

# Biological target: T1, fibrin
# Assay: as above
row,Rel IC50,Binder
1,0.75 ratio to Ac-Seq000-GGGK-NH2,B21
